The results in this text go back to publication PMC6602975.

The target of test [1] is Unmodified nucleosome core particle (X. laevis histone octamer on 147 bp Widom-601 DNA) (X. laevis). Briefly: native gel or EMSA; increasing amounts of Orc1 or Sir3 proteins with 50 or 25 nM nucleosomes; 10 mM Tris pH 7.5, 50 mM NaCl, 2.5% glycerol, 1 mM DTT; room temperature, 30 min; native PAGE 6% (Sir3) or 8% (Orc1), 0.2X TBE; decrease of free nucleosome; apparent KD from a Hill fit.

Test [2] addresses H4K16ac nucleosome (X. laevis | not stated). Described as above.

With “Orc1 BAH A2P (from UniProt P54784 1-214) (domain or fragment)”, the fold loss of affinity compared with the WT domain in test [1] was found to be 2 fold.
Turning to “Orc1 BAH E95K (from UniProt P54784 1-214) (domain or fragment)”, the fold loss of affinity in test [1] came to 4 fold.
Take “Orc1 BAH R202E (from UniProt P54784 1-214) (domain or fragment)”: in test [1], the fold decrease in affinity compared with the WT domain was determined as 4.9 fold.
Take “Sir3 BAH D205Q (from UniProt P06701 1-214) (domain or fragment)”: the fold difference in affinity compared with unmodified nucleosome in test [2] is 4 fold.
